Measured values: patent US20230044278A1 (DYNE THERAPEUTICS, published 2023)

T1: recombinant cynomolgus monkey (Macaca fascicularis) transferrin receptor 1 (cynomolgus monkey (Macaca fascicularis), UniProt Q5RDH6 87-760 (Pongo abelii entry), limits assumed)
T1 construct: also called cTfR1; cyno TfR1
T1 chain: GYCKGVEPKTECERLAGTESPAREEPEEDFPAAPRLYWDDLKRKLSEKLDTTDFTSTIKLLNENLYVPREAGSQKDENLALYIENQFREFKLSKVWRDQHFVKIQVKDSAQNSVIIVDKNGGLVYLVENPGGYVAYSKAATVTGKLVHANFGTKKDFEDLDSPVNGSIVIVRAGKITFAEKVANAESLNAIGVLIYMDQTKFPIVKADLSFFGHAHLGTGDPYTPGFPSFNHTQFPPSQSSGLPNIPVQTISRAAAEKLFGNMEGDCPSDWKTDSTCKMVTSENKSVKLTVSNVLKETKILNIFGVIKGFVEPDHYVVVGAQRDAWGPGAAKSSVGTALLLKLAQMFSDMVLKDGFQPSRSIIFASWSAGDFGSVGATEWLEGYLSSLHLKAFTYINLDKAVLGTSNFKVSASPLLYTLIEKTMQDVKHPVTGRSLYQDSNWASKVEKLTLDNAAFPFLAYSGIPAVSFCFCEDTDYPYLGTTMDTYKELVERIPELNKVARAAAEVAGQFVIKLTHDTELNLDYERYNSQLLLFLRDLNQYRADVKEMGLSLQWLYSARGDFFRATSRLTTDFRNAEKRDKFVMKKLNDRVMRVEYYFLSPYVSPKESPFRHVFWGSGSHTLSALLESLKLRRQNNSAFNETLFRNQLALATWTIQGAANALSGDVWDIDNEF


Assays:
[1] = molecular target: T1, recombinant cynomolgus monkey (Macaca …); assay: ELISA, thermal stability d9 (after 9 days at high temperature); printed as 'Binding affinity cyno TfR1 d9 (nM)'
Experimental: The selected Fabs were analyzed for their properties binding to TfR1 by kinetic analysis. For conjugates shown in Table 8 and Table 9, the selected humanized Fabs were conjugated to a DMPK-targeting oligonucleotide ASO300.
(§1) To measure binding of humanized anti-TfR antibodies to TfR1, ELISAs were conducted. High binding, black, flat bottom, 96 well plates (Corning #3925) were first coated with 100 μL/well of recombinant huTfR1 at […] in PBS and incubated at 4° C. overnight. Wells were emptied and residual liquid was removed. Blocking was conducted by adding 200 μL of 1% BSA (w/w) in PBS to each well. Blocking was allowed to proceed for 2 hours at room temperature on a shaker at 300 rpm. After blocking, liquid was removed and wells were washed three times with 300 μL of TBST. Anti-TfR1 antibodies were then added in 0.5% BSA/TBST in triplicate in an 8 point serial dilution (dilution range 5 μg/mL-5 ng/mL). A positive control and isotype controls were also included on the ELISA plate. The plate was incubated at room temperature on an orbital shaker for 60 minutes at 300 rpm, and the plate was washed three times with 300 μL of TBST. Anti-(H+L)IgG-A488 (1:500) (Invitrogen #A11013) was diluted in 0.5% BSA in TBST, and 100 μL was added to each well. The plate was then allowed to incubate at room temperature for 60 minutes at 300 rpm on orbital shaker. The liquid was removed and the plate was washed four times with 300 μL of TBST. Absorbance was then measured at 495 nm excitation and […] (with a 15 nm bandwidth) on a plate reader. Data was recorded and analyzed for EC₅₀. […] ELISA measurements were conducted using cynomolgus monkey (Macaca fascicularis) TfR1 (cTfR1) according to the same protocol described above for hTfR1, and results are shown in FIGS. 1B, 1D, and 1F.

[2] = molecular target: T2, recombinant human transferrin receptor 1 (human, UniProt P02786 89-760); assay: ELISA, thermal stability d9 (after 9 days at high temperature); printed as 'Binding affinity hTfR1 d9 (nM)'
T2 construct: also called hTfR1; huTfR1
Experimental: as §1

[3] = molecular target: T2, recombinant human transferrin receptor 1; assay: ELISA, Fab-ASO300 conjugate; printed as 'DMPK oligo conjugate binding to hTfR1 (nM)'
[4] = molecular target: T1, recombinant cynomolgus monkey (Macaca …); assay: ELISA, Fab-ASO300 conjugate; printed as 'DMPK oligo conjugate binding to cyno TfR1 (nM)'

T2 sequence (P02786 89-760 limits assumed): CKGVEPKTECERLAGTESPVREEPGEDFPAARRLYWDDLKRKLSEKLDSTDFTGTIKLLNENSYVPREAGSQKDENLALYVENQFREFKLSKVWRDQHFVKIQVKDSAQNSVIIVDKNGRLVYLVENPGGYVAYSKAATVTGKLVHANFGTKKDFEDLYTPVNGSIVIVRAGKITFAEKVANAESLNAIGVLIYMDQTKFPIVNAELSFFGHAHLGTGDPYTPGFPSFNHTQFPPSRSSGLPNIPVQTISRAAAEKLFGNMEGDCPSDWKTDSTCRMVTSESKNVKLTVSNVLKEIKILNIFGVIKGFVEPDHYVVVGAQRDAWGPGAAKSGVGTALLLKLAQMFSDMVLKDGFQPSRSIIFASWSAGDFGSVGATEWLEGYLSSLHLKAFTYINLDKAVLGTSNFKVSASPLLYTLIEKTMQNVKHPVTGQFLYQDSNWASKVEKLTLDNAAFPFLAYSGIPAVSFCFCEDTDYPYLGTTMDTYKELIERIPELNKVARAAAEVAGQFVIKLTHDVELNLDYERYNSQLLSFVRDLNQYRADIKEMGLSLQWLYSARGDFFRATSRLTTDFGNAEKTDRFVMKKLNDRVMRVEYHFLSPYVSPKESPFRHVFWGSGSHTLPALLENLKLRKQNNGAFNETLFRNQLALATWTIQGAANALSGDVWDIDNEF

Binder | EC50 [1] | EC50 [2] | EC50 [3] | EC50 [4]
humanized anti-TfR Fab 3A4 (VH3-N54T/Vk4) (Fab, V domains shown, unconjugated; also called 3A4 VH3 (N54T*)/Vκ4) VH: EVQLVQSGSELKKPGASVKVSCTASGFNIKDDYMYWVRQPPGKGLEWIGWIDPETGDTEYASKFQDRVTVTADTSTNTAYMELSSLRSEDTAVYYCTLWLRRGLDYWGQGTLVTVSS VL: DIVMTQSPLSLPVTPGEPASISCRSSKSLLHSNGYTYLFWFQQRPGQSPRLLIYRMSNLASGVPDRFSGSGSGTDFTLKISRVEAEDVGVYYCMQHLEYPFTFGGGTKVEIKR | 128 nM | 0.4 nM | – | –
3A4 (VH3-N54T/Vk4) Fab conjugated to DMPK-targeting oligonucleotide ASO300 (Fab, V domains shown, ASO300 oligonucleotide covalently conjugated via linker of Formula (C); residue and chain not stated, also called 3A4 (VH3-N54T/Vk4) conjugate; DMPK oligo conjugate) VH: EVQLVQSGSELKKPGASVKVSCTASGFNIKDDYMYWVRQPPGKGLEWIGWIDPETGDTEYASKFQDRVTVTADTSTNTAYMELSSLRSEDTAVYYCTLWLRRGLDYWGQGTLVTVSS VL: DIVMTQSPLSLPVTPGEPASISCRSSKSLLHSNGYTYLFWFQQRPGQSPRLLIYRMSNLASGVPDRFSGSGSGTDFTLKISRVEAEDVGVYYCMQHLEYPFTFGGGTKVEIKR | – | – | 2.22 nM | 5.12 nM
humanized anti-TfR Fab 3A4 (VH3/Vk4) (Fab, V domains shown, unconjugated; also called 3A4 VH3 /Vκ4) VH: EVQLVQSGSELKKPGASVKVSCTASGFNIKDDYMYWVRQPPGKGLEWIGWIDPENGDTEYASKFQDRVTVTADTSTNTAYMELSSLRSEDTAVYYCTLWLRRGLDYWGQGTLVTVSS VL: DIVMTQSPLSLPVTPGEPASISCRSSKSLLHSNGYTYLFWFQQRPGQSPRLLIYRMSNLASGVPDRFSGSGSGTDFTLKISRVEAEDVGVYYCMQHLEYPFTFGGGTKVEIKR | 878 nM | 0.46 nM | – | –
humanized anti-TfR Fab 3A4 (VH3-N54S/Vk4) (Fab, V domains shown, unconjugated; also called 3A4 VH3 (N54S*)/Vκ4) VH: EVQLVQSGSELKKPGASVKVSCTASGFNIKDDYMYWVRQPPGKGLEWIGWIDPESGDTEYASKFQDRVTVTADTSTNTAYMELSSLRSEDTAVYYCTLWLRRGLDYWGQGTLVTVSS VL: DIVMTQSPLSLPVTPGEPASISCRSSKSLLHSNGYTYLFWFQQRPGQSPRLLIYRMSNLASGVPDRFSGSGSGTDFTLKISRVEAEDVGVYYCMQHLEYPFTFGGGTKVEIKR | 248 nM | 0.65 nM | – | –
3A4 (VH3-N54S/Vk4) Fab conjugated to DMPK-targeting oligonucleotide ASO300 (Fab, V domains shown, ASO300 oligonucleotide covalently conjugated via linker of Formula (C); residue and chain not stated, also called 3A4 (VH3-N54S/Vk4) conjugate; DMPK oligo conjugate) VH: EVQLVQSGSELKKPGASVKVSCTASGFNIKDDYMYWVRQPPGKGLEWIGWIDPESGDTEYASKFQDRVTVTADTSTNTAYMELSSLRSEDTAVYYCTLWLRRGLDYWGQGTLVTVSS VL: DIVMTQSPLSLPVTPGEPASISCRSSKSLLHSNGYTYLFWFQQRPGQSPRLLIYRMSNLASGVPDRFSGSGSGTDFTLKISRVEAEDVGVYYCMQHLEYPFTFGGGTKVEIKR | – | – | 2.71 nM | 4.1 nM
humanized anti-TfR Fab 3M12 (VH3/Vk2) (Fab, V domains shown, unconjugated; also called 3M12 VH3/Vκ2) VH: QVQLQESGPGLVKPSQTLSLTCSVTGYSITSGYYWNWIRQPPGKGLEWMGYITFDGANNYNPSLKNRVSISRDTSKNQFSLKLSSVTAEDTATYYCTRSSYDYDVLDYWGQGTTVTVSS VL: DIQMTQSPSSLSASVGDRVTITCRASQDISNFLNWYQQKPGQPVKLLIYYTSRLHSGVPSRFSGSGSGTDFTLTISSLQPEDFATYFCQQGHTLPYTFGQGTKLEIKR | 19.5 nM | 0.98 nM | – | –
3M12 (VH3/Vk2) Fab conjugated to DMPK-targeting oligonucleotide ASO300 (Fab, V domains shown, ASO300 oligonucleotide covalently conjugated via linker of Formula (C); residue and chain not stated, also called 3M12 (VH3/Vk2) conjugate; DMPK oligo conjugate) VH: QVQLQESGPGLVKPSQTLSLTCSVTGYSITSGYYWNWIRQPPGKGLEWMGYITFDGANNYNPSLKNRVSISRDTSKNQFSLKLSSVTAEDTATYYCTRSSYDYDVLDYWGQGTTVTVSS VL: DIQMTQSPSSLSASVGDRVTITCRASQDISNFLNWYQQKPGQPVKLLIYYTSRLHSGVPSRFSGSGSGTDFTLTISSLQPEDFATYFCQQGHTLPYTFGQGTKLEIKR | – | – | 1.14 nM | 2.26 nM
humanized anti-TfR Fab 3M12 (VH3/Vk3) (Fab, V domains shown, unconjugated; also called 3M12 VH3/Vκ3) VH: QVQLQESGPGLVKPSQTLSLTCSVTGYSITSGYYWNWIRQPPGKGLEWMGYITFDGANNYNPSLKNRVSISRDTSKNQFSLKLSSVTAEDTATYYCTRSSYDYDVLDYWGQGTTVTVSS VL: DIQMTQSPSSLSASVGDRVTITCRASQDISNFLNWYQQKPGQPVKLLIYYTSRLHSGVPSRFSGSGSGTDFTLTISSLQPEDFATYYCQQGHTLPYTFGQGTKLEIKR | 15.6 nM | 1.49 nM | – | –
3M12 (VH4/Vk3) Fab conjugated to DMPK-targeting oligonucleotide ASO300 (Fab, V domains shown, ASO300 oligonucleotide covalently conjugated via linker of Formula (C); residue and chain not stated, also called 3M12 (VH4/Vk3) conjugate; DMPK oligo conjugate) VH: QVQLQESGPGLVKPSQTLSLTCTVTGYSITSGYYWNWIRQPPGKGLEWIGYITFDGANNYNPSLKNRVSISRDTSKNQFSLKLSSVTAEDTATYYCTRSSYDYDVLDYWGQGTTVTVSS VL: DIQMTQSPSSLSASVGDRVTITCRASQDISNFLNWYQQKPGQPVKLLIYYTSRLHSGVPSRFSGSGSGTDFTLTISSLQPEDFATYYCQQGHTLPYTFGQGTKLEIKR | – | – | 1.18 nM | 1.85 nM
humanized anti-TfR Fab 5H12 (VH5-C33Y/Vk4) (Fab, V domains shown, unconjugated; also called 5H12 VH5 (C33Y*)/Vκ4) VH: QVQLVQSGAEVKKPGASVKVSCKASGYSFTDYYINWVRQAPGQGLEWMGWIYPGSGNTRYSERFKGRVTITRDTSASTAYMELSSLRSEDTAVYYCAREDYYPYHGMDYWGQGTLVTVSS VL: DIVMTQSPDSLAVSLGERATINCRASESVDGYDNSFMHWYQQKPGQPPKLLIFRASNLESGVPDRFSGSGSGTDFTLTISSLQAEDVAVYYCQQSSEDPWTFGQGTKLEIKR | 0.26 nM | 1730 nM | – | –

Continued, values first:

EC50 [1] | EC50 [2] | EC50 [3] | EC50 [4] | Binder
5.01 nM | 0.5 nM | – | – | humanized anti-TfR Fab 3M12 (VH4/Vk2) (Fab, V domains shown, unconjugated; also called 3M12 VH4/Vκ2) VH: QVQLQESGPGLVKPSQTLSLTCTVTGYSITSGYYWNWIRQPPGKGLEWIGYITFDGANNYNPSLKNRVSISRDTSKNQFSLKLSSVTAEDTATYYCTRSSYDYDVLDYWGQGTTVTVSS VL: DIQMTQSPSSLSASVGDRVTITCRASQDISNFLNWYQQKPGQPVKLLIYYTSRLHSGVPSRFSGSGSGTDFTLTISSLQPEDFATYFCQQGHTLPYTFGQGTKLEIKR
16.4 nM | 0.28 nM | – | – | humanized anti-TfR Fab 3M12 (VH4/Vk3) (Fab, V domains shown, unconjugated; also called 3M12 VH4/Vκ3) VH: QVQLQESGPGLVKPSQTLSLTCTVTGYSITSGYYWNWIRQPPGKGLEWIGYITFDGANNYNPSLKNRVSISRDTSKNQFSLKLSSVTAEDTATYYCTRSSYDYDVLDYWGQGTTVTVSS VL: DIQMTQSPSSLSASVGDRVTITCRASQDISNFLNWYQQKPGQPVKLLIYYTSRLHSGVPSRFSGSGSGTDFTLTISSLQPEDFATYYCQQGHTLPYTFGQGTKLEIKR
0.69 nM | 71.9 nM | – | – | humanized anti-TfR Fab 5H12 (VH5-C33Y/Vk3) (Fab, V domains shown, unconjugated; also called 5H12 VH5 (C33Y*)/Vκ3) VH: QVQLVQSGAEVKKPGASVKVSCKASGYSFTDYYINWVRQAPGQGLEWMGWIYPGSGNTRYSERFKGRVTITRDTSASTAYMELSSLRSEDTAVYYCAREDYYPYHGMDYWGQGTLVTVSS VL: DIVLTQSPDSLAVSLGERATINCRASESVDGYDNSFMHWYQQKPGQPPKLLIFRASNLESGVPDRFSGSGSRTDFTLTISSLQAEDVAVYYCQQSSEDPWTFGQGTKLEIKR
0.63 nM | 92.3 nM | – | – | humanized anti-TfR Fab 5H12 (VH5-C33D/Vk4) (Fab, V domains shown, unconjugated; also called 5H12 VH5 (C33D*)/Vκ4) VH: QVQLVQSGAEVKKPGASVKVSCKASGYSFTDYDINWVRQAPGQGLEWMGWIYPGSGNTRYSERFKGRVTITRDTSASTAYMELSSLRSEDTAVYYCAREDYYPYHGMDYWGQGTLVTVSS VL: DIVMTQSPDSLAVSLGERATINCRASESVDGYDNSFMHWYQQKPGQPPKLLIFRASNLESGVPDRFSGSGSGTDFTLTISSLQAEDVAVYYCQQSSEDPWTFGQGTKLEIKR
